Laboratory results from paper PMC3567105, “Analysis of the Enzymatic Properties of a Broad Family of Alanine Aminotransferases” (PLoS ONE, 2013).

B1: ScAlaAT1 (Saccharomyces cerevisiae S288C) (protein)
chain: SSSWIVAQNHRRSLSGQSSLNDLRHLNRFPHHTLKTSNNEFYPAEQLTLEDVNENVLKAKYAVRGAIPMRAEELKAQLEKDPQSLPFDRIINANIGNPQQLQQKPLTYYRQVLSLLQYPELLNQNEQQLVDSKLFKLDAIKRAKSLMEDIGGSVGAYSSSQGVEGIRKSVAEFITKRDEGEISYPEDIFLTAGASAAVNYLLSIFCRGPETGVLIPIPQYPLYTATLALNNSQALPYYLDENSGWSTNPEEIETVVKEAIQNEIKPTVLVVINPGNPTGAVLSPESIAQIFEVAAKYGTVVIADEVYQENIFPGTKFHSMKKILRHLQREHPGKFDNVQLASLHSTSKGVSGECGQRGGYMELTGFSHEMRQVILKLASISLCPVVTGQALVDLMVRPPVEGEESFESDQAERNSIHEKLITRAMTLYETFNSLEGIECQKPQGAMYLFPKIDLPFKAVQEARHLELTPDEFYCKKLLESTGICTVPGSGFGQEPGTYHLRTTFLAPGLEWIKKWESFHKEFFDQYRD
notes: untagged, pBAD18-Kan, E. coli TR61, desalted whole-protein extract, not purified
B2: AtGGAT1 (Arabidopsis thaliana) (protein)
chain: MALKALDYDTLNENVKKCQYAVRGELYLRASELQKEGKKIIFTNVGNPHALGQKPLTFPRQVVALCQAPFLLDDPNVGMLFPADAIARAKHYLSLTSGGLGAYSDSRGLPGVRKEVAEFIQRRDGYPSDPELIFLTDGASKGVMQILNCVIRGNGDGILVPVPQYPLYSATISLLGGTLVPYYLDESENWGLDVANLRQSVAQARSQGITVRAMVIINPGNPTGQCLSEANIREILKFCYNEKLVLLGDEVYQQNIYQDERPFISSKKVLMEMGSPFSKEVQLVSFHTVSKGYWGECGQRGGYFEMTNLPPRVVEEIYKVASIALSPNVSAQIFMGLMVNPPKPGDISYDQFARESKGILESLRRRARLMTDGFNSCKNVVCNFTEGAMYSFPQIRLPTGALQAAKQAGKVPDVFYCLKLLEATGISTVPGSGFGQKEGVFHLRTTILPAEDEMPEIMDSFKKFNDEFMTQYDNNFGYSKM
notes: as for B1
B3: AtAlaAT2 (Arabidopsis thaliana) (protein)
chain: SSTSEMSASDSTSSLPVTLDSINPKVLKCEYAVRGEIVNIAQKLQEDLKTNKDAYPFDEIIYCNIGNPQSLGQLPIKFFREVLALCDHASLLDESETHGLFSTDSIDRAWRILDHIPGRATGAYSHSQGIKGLRDVIAAGIEARDGFPADPNDIFLTDGASPAVHMMMQLLLSSEKDGILSPIPQYPLYSASIALHGGSLVPYYLDEATGWGLEISDLKKQLEEARSKGISVRALVVINPGNPTGQVLAEENQRDIVNFCKQEGLVLLADEVYQENVYVPDKKFHSFKKVARSLGYGEKDISLVSFQSVSKGYYGECGKRGGYMEVTGFTSDVREQIYKMASVNLCSNISGQILASLVMSPPKPGDDSYDSYMAERDGILSSMAKRAKTLEDALNSLEGVTCNRAEGAMYLFPRINLPQKAIEAAEAEKTAPDAFYCKRLLNATGVVVVPGSGFGQVPGTWHFRCTILPQEDKIPAIVNRLTEFHKSFMDEFRN
notes: as for B1
B4: HvAlaAT (Hordeum vulgare) (protein)
chain: MAATVAVDNLNPKVLKCEYAVRGEIVIHAQRLQEQLKTQPGSLPFDEILYCNIGNPQSLGQQPVTFFREVLALCDHPDLLQREEIKTLFSADSISRAKQILAMIPGRATGAYSHSQGIKGLRDAIASGIASRDGFPANADDIFLTDGASPGVHLMMQLLIRNEKDGILVPIPQYPLYSASIALHGGALVPYYLNESTGWGLETSDVKKQLEDARSRGINVRALVVINPGNPTGQVLAEENQYDIVKFCKNEGLVLLADEVYQENIYVDNKKFHSFKKIVRSLGYGEEDLPLVSYQSVSKGYYGECGKRGGYFEITGFSAPVREQIYKIASVNLCSNITGQILASLVMNPPKASDESYASYKAEKDGILASLARRAKALEHAFNKLEGITCNEAEGAMYVFPQICLPQKAIEAAKAANKAPDAFYALRLLESTGIVVVPGSGFGQVPGTWHFRCTILPQEDKIPAVISRFTVFHEAFMSEYRD
notes: untagged, from cDNA, pBAD18-Kan, E. coli TR61, desalted whole-protein extract, not purified
B5: PfAlaAT (Pyrococcus furiosus DSM 3638) (protein)
chain: MIRASKRALSVEYAIRDVVLPARELEKKGIKVIRLNIGDPVKFDFQPPEHMKEAYCKAIKEGHNYYGDSEGLPELRKAIVEREKRKNGVDITPDDVRVTAAVTEALQLIFGALLDPGDEILVPGPSYPPYTGLVKFYGGKPVEYRTIEEEDWQPDIDDIRKKITDRTKAIAVINPNNPTGALYDKKTLEEILNIAGEYEIPVISDEIYDLMTYEGEHISPGSLTKDVPVIVMNGLSKVYFATGWRLGYMYFVDPENKLSEVREAIDRLARIRLCPNTPAQFAAIAGLTGPMDYLKEYMKKLKERRDYIYKRLNEIPGISTTKPQGAFYIFPKIEVGPWKNDKEFVLDVLHNAHVLFVHGSGFGEYGAGHFRAVFLPPIEILEEAMDRFEKFMKERLKE
notes: as for B1
B6: AtAlaAT1 (Arabidopsis thaliana) (protein)
chain: SASDSSSSLPVTLDTINPKVIKCEYAVRGEIVNIAQKLQEDLKTNKDAYPFDEIIYCNIGNPQSLGQQPITFFREVLALCSYTALLDESATHGLFSSDSIERAWKILDQIPGRATGAYSHSQGIKGLRDAIADGIEARDGFPADPNDIFMTDGASPGVHMMMQLLITSEKDGILCPIPQYPLYSASIALHGGTLVPYYLDEASGWGLEISELKKQLEDARSKGITVRALAVINPGNPTGQVLSEENQRDVVKFCKQEGLVLLADEVYQENVYVPDKKFHSFKKVARSMGYGEKDLALVSFQSVSKGYYGECGKRGGYMEVTGFTSDVREQIYKMASVNLCSNISGQILASLIMSPPKPGDDSYESYIAEKDGILSSLARRAKTLEEALNKLEGVTCNRAEGAMYLFPCLHLPQKAIAAAEAEKTAPDNFYCKRLLKATGIVVVPGSGFRQVPGTWHFRCTILPQEDKIPAIVDRLTAFHQSFMDEFRD
notes: as for B1
B7: AtGGAT2 (Arabidopsis thaliana) (protein)
chain: MSLKALDYESLNENVKNCQYAVRGELYLRASELQKEGKKIIFTNVGNPHALGQKPLTFPRQVVSLCQAPFLLDDPNVGMIFPADAIARAKHYLSLTSGGLGAYSDSRGLPGVRKEVAEFIERRDGYPSDPELIFLTDGASKGVMQILNCVIRGQKDGILVPVPQYPLYSATISLLGGTLVPYYLEESENWGLDVNNLRQSVAQARSQGITVRAMVIINPGNPTGQCLSEANIREILRFCCDERLVLLGDEVYQQNIYQDERPFISSKKVLMDMGAPISKEVQLISFHTVSKGYWGECGQRGGYFEMTNIPPRTVEEIYKVASIALSPNVSAQIFMGLMVSPPKPGDISYDQFVRESKGILESLRRRARMMTDGFNSCKNVVCNFTEGAMYSFPQIKLPSKAIQAAKQAGKVPDVFYCLKLLEATGISTVPGSGFGQKEGVFHLRTTILPAEEEMPEIMDSFKKFNDEFMSQYADNFGYSRM
notes: as for B1
B8: MmAlaAT1 (Mus musculus) (protein)
chain: ASQRNDRIQASRNGLKGKVLTLDTMNPCVRRVEYAVRGPIVQRALELEQELRQGVKKPFTEVIRANIGDAQAMGQRPITFFRQVLALCVYPNLLSSPDFPEDAKRRAERILQACGGHSLGAYSISSGIQPIREDVAQYIERRDGGIPADPNNIFLSTGASDAIVTMLKLLVAGEGRARTGVLIPIPQYPLYSAALAELDAVQVDYYLDEERAWALDIAELRRALCQARDRCCPRVLCVINPGNPTGQVQTRECIEAVIRFAFEEGLFLMADEVYQDNVYAEGSQFHSFKKVLTEMGPPYATQQELASFHSVSKGYMGECGFRGGYVEVVNMDAEVQKQMAKLMSVRLCPPVPGQALMGMVVSPPTPSEPSFKQFQAERQEVLAELAAKAKLTEQVFNEAPGIRCNPVQGAMYSFPQIQLPLKAVQRAQDLGLAPDMFFCLCLLEETGICVVPGSGFGQQEGTYHFRMTILPPMEKLRVLLEKLRHFHAKFTHEYS
notes: as for B1

Key:
Test in all cases: cells, lysate or membranes
[1] = substrate: O=C(O)CCC(=O)C(=O)O; format: biochemical, Saccharomyces cerevisiae; conditions: 100 mM alanine, 0.1 M Tris-HCl pH 8.0, 20°C, 10 µM PLP, unpurified extract
[2] = substrate: C[C@H](N)C(=O)O; conditions: 10 mM 2-oxoglutarate, 0.1 M Tris-HCl pH 8.0, 20°C, 10 µM PLP, unpurified extract
[3] = substrate: CC(=O)C(=O)O; format: biochemical, Arabidopsis thaliana; conditions: 50 mM glutamate, 100 mM NH4Cl, 0.1 M Tris-HCl pH 8.0, 20°C, 10 µM PLP, unpurified extract
[4] = substrate: O=C(O)CCC(=O)C(=O)O; format: biochemical, Arabidopsis thaliana; conditions: 100 mM alanine, 0.1 M Tris-HCl pH 8.0, 20°C, 10 µM PLP, unpurified extract
[5] = substrate: N[C@@H](CCC(=O)O)C(=O)O; format: biochemical, Arabidopsis thaliana; conditions: 10 mM pyruvate, 100 mM NH4Cl, 0.1 M Tris-HCl pH 8.0, 20°C, 10 µM PLP, unpurified extract
[6] = substrate: CC(=O)C(=O)O; format: biochemical, Hordeum vulgare; conditions: 50 mM glutamate, 100 mM NH4Cl, 0.1 M Tris-HCl pH 8.0, 20°C, 10 µM PLP, unpurified extract
[7] = substrate: O=C(O)CCC(=O)C(=O)O; format: biochemical, Hordeum vulgare; conditions: 100 mM alanine, 0.1 M Tris-HCl pH 8.0, 20°C, 10 µM PLP, unpurified extract
[8] = substrate: N[C@@H](CCC(=O)O)C(=O)O; format: biochemical, Pyrococcus furiosus; conditions: 10 mM pyruvate, 100 mM NH4Cl, 0.1 M Tris-HCl pH 8.0, 20°C, 10 µM PLP, unpurified extract
[9] = substrate: O=C(O)CCC(=O)C(=O)O; format: biochemical, Pyrococcus furiosus; conditions: 100 mM alanine, 0.1 M Tris-HCl pH 8.0, 20°C, 10 µM PLP, unpurified extract
[10] = substrate: N[C@@H](CCC(=O)O)C(=O)O; format: biochemical, Mus musculus; conditions: 10 mM pyruvate, 100 mM NH4Cl, 0.1 M Tris-HCl pH 8.0, 20°C, 10 µM PLP, unpurified extract
[11] = substrate: O=C(O)CCC(=O)C(=O)O; format: biochemical, Mus musculus; conditions: 100 mM alanine, 0.1 M Tris-HCl pH 8.0, 20°C, 10 µM PLP, unpurified extract

Protein | Km [2] [µM] | Km [3] [µM] | Km [4] [µM] | also measured
B1 | 300 ± 100 | – | – | Km [1]: 500 ± 100 µM
B2 | 1900 ± 500 | 600 ± 100 | 200 ± 100 | –
B3 | – | 5100 ± 900 | 1000 ± 100 | Km [5]: 4900 ± 1100 µM
B4 | – | – | – | Km [6]: 100 ± 0 µM; Km [7]: 200 ± 0 µM
B5 | – | – | – | Km [8]: 900 ± 100 µM; Km [9]: 20 ± 0 µM
B6 | 2400 ± 500 | 100 ± 0 | 100 ± 0 | –
B7 | 1200 ± 100 | 18500 ± 2700 | 8800 ± 1800 | –
B8 | – | – | – | Km [10]: 13000 ± 2400 µM; Km [11]: 100 ± 100 µM
